Measurements: paper PMC11371640, “Structural deficits in key domains of Shank2 lead to alterations in postsynaptic nanoclusters and to a neurodevelopmental disorder in humans” (Molecular Psychiatry, 2022)

B1: His6-SUMO-tagged SH3 to PDZ domains of Shank2 (R520-D727), WT [not stated (human or rat cDNA cloned)] / synthetic peptide of the complete PDZ ligand of GKAP (last 15 amino acids of GKAP/SAPAP1) [not stated] (parent complex)
chain 1: RKLYSAVPGRLFVAVKPYQPQVDGEIPLHRGDRVKVLSIGEGGFWEGSARGHIGWFPAECVEEVQCKPRDSQAETRADRSKKLFRHYTVGSYDSFDTSSDCIIEEKTVVLQKKDNEGFGFVLRGAKADTPIEEFTPTPAFPALQYLESVDEGGVAWQAGLRTGDFLIEVNNENVVKVGHRQVVNMIRQGGNHLVLKVVTVTRNLDPDD
chain 2: ADSIEIYIPEAQTRL

Variants of: B1
Experiment: ITC; parent: 320 nM

| Variant | Kd [nM] |
| --- | --- |
| chain 1 G124R | 22500 |

Variants of: B1
Experiment: ITC; parent: 319 nM

| Variant | Kd [nM] |
| --- | --- |
| chain 1 G124R | 22000 |

Variants of: B1
Experiment: ITC; parent: 319 nM
Remark: another data set of the same source

| Variant | Kd [nM] |
| --- | --- |
| chain 1 V198F | 848 |
| chain 1 N171S | 411 |
| chain 1 S91Y | 910 |
